# Measured values published in paper PMC5449630.
# Tests used:
# [1] = molecular target: CK2-phosphorylated XRCC4(1-238)-LigIV(654-911) complex (UniProt Q13426); test: SEC-MALS
# [2] = molecular target: CK2-phosphorylated XRCC4(1-238)-LigIV(654-911) complex (UniProt Q13426); test: SAXS
# Sequence of CK2-phosphorylated XRCC4(1-238)-LigIV(654-911) complex (Q13426 1-238, chain 1 of 2): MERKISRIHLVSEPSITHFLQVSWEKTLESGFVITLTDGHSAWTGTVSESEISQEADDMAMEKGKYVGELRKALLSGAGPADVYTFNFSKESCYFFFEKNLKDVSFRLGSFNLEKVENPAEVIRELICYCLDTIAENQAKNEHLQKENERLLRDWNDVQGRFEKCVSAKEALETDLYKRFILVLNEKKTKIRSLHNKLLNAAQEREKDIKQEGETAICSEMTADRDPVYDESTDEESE
# Sequence of CK2-phosphorylated XRCC4(1-238)-LigIV(654-911) complex (P49917 654-911, chain 2 of 2, further chain): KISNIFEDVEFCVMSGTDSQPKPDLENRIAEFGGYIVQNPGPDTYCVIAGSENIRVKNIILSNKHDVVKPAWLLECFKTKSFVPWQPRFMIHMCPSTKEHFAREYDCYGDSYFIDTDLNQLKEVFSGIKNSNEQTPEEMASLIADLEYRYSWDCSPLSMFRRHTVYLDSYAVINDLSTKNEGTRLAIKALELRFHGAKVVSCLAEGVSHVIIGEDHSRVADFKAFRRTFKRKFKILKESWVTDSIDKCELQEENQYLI
substance,measurement,setting,value
"polynucleotide kinase/phosphatase (PNKP), full length, wild type (from UniProt Q96T60 1-521) (enzyme)",stoichiometry N (PNKP per pXRCC4 dimer-LigIV complex),[1],1
same,stoichiometry N (PNKP per pXRCC4 dimer-LigIV complex),[2],1
